In article PMC4586175 (Oncogene, 2009):

Molecular target: purified GST-RACK1 (human, UniProt P63244 1-317)
Assay: pull-down

binding result: binds
B1: purified His-WRN protein (natural protein)
chain: not shown
